Test results as given in patent publication US12398179.
Non-standard residues stand in square brackets, D forms with d. No end group written: not given here. *: point of attachment. Biotin = O=C1N[C@H]2[C@H](CS[C@H]2CCCCC(=O)*)N1; βAla = NCCC(=O)O

Key:
[1] = target: EphA2 extracellular domain fused to the Fc portion of an antibody (EphA2 Fc); assay: competition ELISA: inhibition of ephrin-A5 AP binding to immobilized EphA2 Fc; average ± SE (number of experiments)
[2] = target: EphA2 extracellular domain fused to the Fc portion of an antibody (EphA2 Fc); assay: ELISA, inhibition of ephrin-A5 AP binding to immobilized EphA2 Fc; representative experiment; concentrations in nM
[3] = target: EphA2 extracellular domain fused to the Fc portion of an antibody (EphA2 Fc); assay: ELISA, inhibition of ephrin-A5 AP binding to immobilized EphA2 Fc; representative experiment
[4] = target: EphA2 extracellular domain fused to the Fc portion of an antibody (EphA2 Fc); assay: competition ELISA: inhibition of ephrin-A5 AP binding to EphA2 Fc

Sequence of EphA2 extracellular domain fused to the Fc portion of an antibody (EphA2 Fc) (P29317 whole entry, the tested form may be a part): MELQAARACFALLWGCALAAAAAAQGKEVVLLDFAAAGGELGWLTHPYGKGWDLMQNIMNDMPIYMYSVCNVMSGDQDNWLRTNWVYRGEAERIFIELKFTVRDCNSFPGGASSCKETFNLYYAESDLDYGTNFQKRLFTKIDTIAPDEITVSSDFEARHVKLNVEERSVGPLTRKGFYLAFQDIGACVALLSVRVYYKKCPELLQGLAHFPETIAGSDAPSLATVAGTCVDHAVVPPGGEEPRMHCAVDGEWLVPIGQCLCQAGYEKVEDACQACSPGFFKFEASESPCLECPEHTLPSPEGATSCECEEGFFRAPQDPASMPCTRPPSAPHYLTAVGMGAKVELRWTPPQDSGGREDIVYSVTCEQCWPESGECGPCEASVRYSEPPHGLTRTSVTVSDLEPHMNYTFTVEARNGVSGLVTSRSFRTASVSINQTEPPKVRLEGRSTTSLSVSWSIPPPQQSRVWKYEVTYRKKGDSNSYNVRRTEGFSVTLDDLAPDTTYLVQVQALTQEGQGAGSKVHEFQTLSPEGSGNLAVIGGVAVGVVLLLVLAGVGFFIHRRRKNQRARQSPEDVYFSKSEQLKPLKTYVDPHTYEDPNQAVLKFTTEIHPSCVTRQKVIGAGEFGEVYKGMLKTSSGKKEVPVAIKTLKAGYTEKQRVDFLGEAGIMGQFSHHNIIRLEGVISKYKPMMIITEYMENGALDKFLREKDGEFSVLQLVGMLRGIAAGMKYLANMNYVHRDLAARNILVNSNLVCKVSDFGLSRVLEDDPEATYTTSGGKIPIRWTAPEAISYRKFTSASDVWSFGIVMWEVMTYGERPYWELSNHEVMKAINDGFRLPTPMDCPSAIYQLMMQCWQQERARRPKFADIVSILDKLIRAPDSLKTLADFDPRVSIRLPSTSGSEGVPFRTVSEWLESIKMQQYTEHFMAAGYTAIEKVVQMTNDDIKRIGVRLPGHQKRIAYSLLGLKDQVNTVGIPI

IC50 [1] [nM] | Binder | also measured
330 | [βAla]WLAYPDSVPYGSGK(Biotin) [βA-WLA-YGSGK-bio] | 
62 | [βAla]WLAYPDSVPYSPK(Biotin) [βA-WLA-YSPK-bio] | 
390 | [βAla]WLAYPDSVPYR [βA-WLA-YR] | IC50 [2]: 360 nM
840 | [βAla]WLAYPDSVPM-NH2 [βA-WLAam] | IC50 [3]: 680 nM; fold increase in potency against WLAam [4]: 2 fold
400 | [βAla]WLAYPDSVPYGSK(Biotin) [βA-WLA-YGSK-bio] | 
1500 | WLAYPDSVPM-NH2 [WLAam] | fold improvement in potency against YSA1-10am [4]: 2 fold; IC50 [2]: 1400 nM
380 | [βAla]WLAYPDSVPYSK [βA-WLA-YSK] | 
730 | [βAla]WLAYPDSVPYK(Biotin) [βA-WLA-YK-bio] | 
